Source: patent publication US20230405140A1 (MCSAF INSIDE ONCOLOGY, published 2023)

Experiments:
[1] = target: T1, CD56 (UniProt P13591 20-858, limits assumed); assay: cell-based or functional assay
[2] = target: T1, CD56; assay: cell-based or functional assay; remark: listed apart in the source
[3] = target: T1, CD56; assay: cell-based or functional assay; remark: listed apart in the source
[4] = target: T2, HER2 (UniProt P04626 23-1255, limits assumed); assay: immunocytochemistry with peroxidase secondary antibody, SKBR3 cells (HER2-positive, no CD56); '-' = absence of fixation
T2 construct: whole, on cells; SK-BR-3 (SKBR3) cells, CD56-negative control line

B1: MF-m906-MMAE (antibody, human IgG1, kappa)
heavy: not shown
light: DVVMTQSPLSLPVTPGEPASISCRSSQSLLHSNGYNFLDWYLQKPGQSPQLLIYLGSNRASGVPDRFSGSGSGTDFTLKISRVEADDVGVYYCMQSLQTPWTFGHGTKVEIKRTVAAPSVFIFPPSDEQLKSGTASVVCLLNNFYPREAKVQWKVDNALQSGNSQESVTEQDSKDSTYSLSSTLTLSKADYEKHKVYACEVTHQGLSSPVTKSFNRGEC
modifications: MMAE linker-drug (pyridine-caproic-ValCit-PABc-MMAE, compound 8) grafted on interchain cysteines; mean DAR 3.89
Q: Which “IC50, XTT cytotoxicity test, H69 small cell lung carcinoma line” value [1] does the source give for B1 here?
A: 1 to 2 nM

B2: MIO-003 (antibody, human IgG1, kappa, N297A)
heavy: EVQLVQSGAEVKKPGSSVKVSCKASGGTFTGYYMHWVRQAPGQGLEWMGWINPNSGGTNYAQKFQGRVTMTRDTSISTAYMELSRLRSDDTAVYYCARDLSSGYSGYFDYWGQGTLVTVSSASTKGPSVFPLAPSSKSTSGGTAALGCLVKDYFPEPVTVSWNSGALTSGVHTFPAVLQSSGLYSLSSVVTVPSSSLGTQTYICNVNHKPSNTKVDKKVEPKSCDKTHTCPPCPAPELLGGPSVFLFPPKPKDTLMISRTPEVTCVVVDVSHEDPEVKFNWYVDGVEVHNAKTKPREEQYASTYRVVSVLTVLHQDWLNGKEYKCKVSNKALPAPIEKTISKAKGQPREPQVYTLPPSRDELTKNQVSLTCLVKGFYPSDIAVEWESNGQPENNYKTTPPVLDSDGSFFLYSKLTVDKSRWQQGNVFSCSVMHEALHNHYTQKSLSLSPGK
light: B1 light
modifications: MMAE linker-drug (pyridine-caproic-ValCit-PABc-MMAE) as in MIO-001; attachment residues not itemised
Q: With B2 as the binder, how does the “IC50 (pM), XTT assay, PeTa n = 3” value [2] read?
A: 14900 pM

Q: What about the “IC50 (pM), XTT assay, WaGa n = 3” value [2] of the same binder?
A: 10300 pM

Q: And the “IC50 (pM), XTT assay, H69 n = 3” value [3]?
A: 1950 pM

Q: What about the “IC50 (pM), XTT assay, H209 n = 3” value [3] of the same binder?
A: 22100 pM

B3: m906 (antibody, human IgG1, kappa)
heavy: not shown
light: B1 light
notes: also called mAb-001; anti-CD56 antibody m906
Q: Does B3 bind [4]?
A: no binding (tested: 650 ng/mL)
